Assay results reported in US20140212439A1 (Daiichi Sankyo, published 2014).
Changes are numbered by the printed parent chain. Values belong to the binder of their own block, whether it stands above or below them.

Experiments:
[1] = molecular target: human EPHA2 expressed on cells (human, UniProt P29317 24-976); assay: cell-based or functional assay
bovine serum albumin = molecular target: T1, bovine serum albumin (bovine, UniProt P02769 25-607); assay: ELISA on plate-coated BSA
T1 construct: Control protein in the ELISA; also called BSA
Protocol: A solution of an EPHA2 extracellular region polypeptide (manufactured by R&D Systems, Inc., #3035-A2-100) or bovine serum albumin (in the description below and the figures, abbreviated to “BSA”) as a control diluted to 1 μg/ml with PBS was dispensed at 100 μl/well onto an immunoplate (manufactured by Nunc, #442404) and incubated overnight at 4° C. to thereby adsorb the protein to the plate.
The plate was incubated at room temperature for 1 hour. Then, the solution in the wells was removed, and the wells were washed twice with Diluting Buffer. Goat anti-Mouse IgG, Peroxidase Conjugated (manufactured by Millipore (Chemicon), #AP181P) diluted 1000 times with Diluting Buffer was added at 100 μl/well and incubated at room temperature for 1 hour. The solution in the wells was removed, and the wells were washed twice with Diluting Buffer. Then, a color reaction was performed with stirring by the addition of OPD Color Developing Solution at 100 μl/well. After color development, the color reaction was terminated by the addition of 1 M HCl at 100 μl/well. The absorbance at 490 nm was measured using a plate reader (FIG. 7).

Sequence of human EPHA2 expressed on cells (P29317 24-976 limits assumed): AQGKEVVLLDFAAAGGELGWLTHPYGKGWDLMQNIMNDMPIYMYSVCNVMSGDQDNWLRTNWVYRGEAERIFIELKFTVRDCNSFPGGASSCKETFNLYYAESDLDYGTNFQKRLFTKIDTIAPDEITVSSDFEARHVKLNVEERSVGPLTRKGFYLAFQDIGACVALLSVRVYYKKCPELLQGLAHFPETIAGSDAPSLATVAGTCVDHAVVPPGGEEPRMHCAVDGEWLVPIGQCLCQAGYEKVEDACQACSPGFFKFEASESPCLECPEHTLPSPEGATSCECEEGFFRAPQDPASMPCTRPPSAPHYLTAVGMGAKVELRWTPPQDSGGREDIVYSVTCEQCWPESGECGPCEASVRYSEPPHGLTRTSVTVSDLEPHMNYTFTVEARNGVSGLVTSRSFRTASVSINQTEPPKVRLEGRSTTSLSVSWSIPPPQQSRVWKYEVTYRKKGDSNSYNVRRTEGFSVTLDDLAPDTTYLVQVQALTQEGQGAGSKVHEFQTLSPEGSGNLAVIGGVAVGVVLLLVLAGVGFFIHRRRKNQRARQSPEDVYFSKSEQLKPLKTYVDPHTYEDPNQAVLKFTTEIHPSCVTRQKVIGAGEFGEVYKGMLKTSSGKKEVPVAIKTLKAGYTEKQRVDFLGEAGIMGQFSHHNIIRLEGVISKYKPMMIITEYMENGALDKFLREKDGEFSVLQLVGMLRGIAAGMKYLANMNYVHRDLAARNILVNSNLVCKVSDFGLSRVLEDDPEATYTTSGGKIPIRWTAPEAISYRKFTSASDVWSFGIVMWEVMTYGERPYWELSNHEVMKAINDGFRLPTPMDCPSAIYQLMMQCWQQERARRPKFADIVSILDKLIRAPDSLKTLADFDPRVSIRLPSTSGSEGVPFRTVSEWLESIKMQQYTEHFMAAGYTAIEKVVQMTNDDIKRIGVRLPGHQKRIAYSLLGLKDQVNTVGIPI
T1 sequence (P02769 25-607 limits assumed): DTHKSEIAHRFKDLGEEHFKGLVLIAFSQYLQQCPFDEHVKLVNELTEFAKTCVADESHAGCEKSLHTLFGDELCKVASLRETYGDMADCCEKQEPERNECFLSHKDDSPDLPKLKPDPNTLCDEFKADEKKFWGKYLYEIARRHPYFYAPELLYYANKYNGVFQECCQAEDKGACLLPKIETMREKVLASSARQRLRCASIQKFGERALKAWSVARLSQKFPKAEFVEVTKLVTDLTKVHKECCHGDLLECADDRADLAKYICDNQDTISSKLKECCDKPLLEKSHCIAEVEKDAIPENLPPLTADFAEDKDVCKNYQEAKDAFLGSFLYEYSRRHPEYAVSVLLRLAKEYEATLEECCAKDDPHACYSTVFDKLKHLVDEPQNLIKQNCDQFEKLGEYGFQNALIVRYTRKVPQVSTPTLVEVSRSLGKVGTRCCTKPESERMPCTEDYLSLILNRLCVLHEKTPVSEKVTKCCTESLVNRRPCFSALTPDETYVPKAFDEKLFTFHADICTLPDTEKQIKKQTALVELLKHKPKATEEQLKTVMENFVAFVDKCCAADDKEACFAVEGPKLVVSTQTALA

EPHA2 protein level after 24 hours, EPHA2/β-actin band intensity relative to mIgG2a (100%), with cross-linking antibody [1]: 69% | EPHA2 protein level after 24 hours, EPHA2/β-actin band intensity relative to mIgG2a (100%), without cross-linking antibody [1]: 70% | binding result (bovine serum albumin): no binding (tested: up to 125 µg/ml)
B1: SH348-1 (antibody produced by hybridoma SH348-1, FERM BP-10836) (antibody, mouse IgG2a, kappa, V domains shown)
VH: QIQLVQSGPELKKPGETVKISCKASGYTFTHYSMHWVKQAPGKGLKWMGWINTYTGEPTYADDFKGRFAFSLETSASTAFLQINNLKNEDTATYFCATYYRYERDFDYWGQGTTLTVSS
VL: DVLMTQSPLSLPVSLGDQASISCRSSQSIVHSNGNTYLEWYLQKPGQSPKLLIYKVSNRFSGVPDRFSGSGSGTDFTLRISRVEAEDLGVYYCFQGSHVPYTFGGGTKLEIKR
modifications: N-terminal pyroglutamic acid
notes: Mouse monoclonal IgG2a, kappa; The ends of the cDNAs are primer-derived; also called bSH348-1 (biotinylated form)

binding result (bovine serum albumin): no binding (tested: up to 125 µg/ml)
B2: SH357-1 (antibody produced by hybridoma SH357-1, FERM BP-10837) (antibody, mouse IgG2a, kappa, V domains shown)
VH: B1 VH with T30I, H31D, A61S, F80Y, N84S, T93S
VL: B1 VL with S7T, N33S, N35I, R79K
notes: Mouse monoclonal IgG2a, kappa; also called bSH357-1 (biotinylated form)
